Article PMC6985046

How the values were obtained:
[1] = target: PF-06438179/GP1111 Fab fragment (mouse/human chimeric); experiment: AUC
[2] = target: Remicade Fab fragment (sourced from the European Union market) (mouse/human chimeric); experiment: AUC

Row | stoichiometry N [1] | Kd [2] [µM] | Substance
1 | 2 | – | PF-06438179/GP1111 Fab fragment
2 | – | 23 | Remicade Fab fragment (sourced from the European Union market)
